The text below walks through data of patent US9340788B2 (priority 2007, dated 2016).

Entries after “also recorded” stand apart in the source; their conditions may differ.

What all share (type): cell-based, Human cytomegalovirus
Series [1] relates to HCMV. Kind of series: Measurements of infectious virus production. The conditions noted are these: for infectious virus production (secondary infection): supernatants of siRNA treated HEL harvested 6 dpi used to infect naïve HEL, IE1 staining. As for the experimental part:
HEL cells were transfected with PDGFRα siRNA (smart pool, Dharmacon) or non-targeting control siRNA (Dharmacon) for 48-60 hours when maximum protein knockdown is achieved (panels a and b. Also see FIG. 3d). Cells were then infected with Towne, AD169, TR, or CMV-GFP strains of HCMV for 1 hour, washed and returned to 37° C. in complete growth media. Supernatants obtained from these cultures were used in subsequent assays measuring production of infectious virus as described below. One set of cultures (panels a and b) were used 12 hours post-infection (12 hpi) to measure the expression level of PDGFRα and IE1 by immunofluorescence. […] Cultures infected with supernatants from GFP-CMV treated cells were monitored daily under the fluorescence microscope. Over 40% of the control siRNA treated cells expressed CMV-GFP 1 day post infection (c, 1 dpi) and this number increased to 100% by day 6 (c, 6 dpi). Note the appearance of “plaques”-like groups of cells in control siRNA transfected cells (c, 3 and 6 dpi). […] To measure infectious virus production, supernatants from both control and PDGFRα siRNA treated cultures were harvested at 6 dpi and used to infect naïve HEL cells (secondary infection). […] These experiments were repeated twice.
Measurements of Infectious Virus Production. HEL cells (where indicated were treated with siRNA) were infected with HCMV Towne or CMV-GFP for 1 h, washed and grown for 6 days at 37° C. A duplicate set of cultures was analyzed by immunofluorescence at 12 hours post infection (hpi) to assess percent of IE1 positive cells, as a measure of “primary infection”. Six days post infection supernatant from these cells were centrifuged to exclude cell debris and used to infect naïve HEL cultures as described above. 12 hpi cells were stained for IE1 and IE1 positive cells were counted amongst a total of 100 cells/low magnification microscopic field, 4 fields/condition. These counts were used to determine the level of “secondary infection”—i.e., infectious virus production from the primary infected cells. Where indicated, CMV-GFP infected cells were monitored daily under fluorescence microscope. Each condition was assayed in triplicate.

The test system of series [2] is HCMV. Put plainly: IE1 immunofluorescence of HCMV infected HEL cells. As for the experimental part: HEL cells were transfected with PDGFRα siRNA (smart pool, Dharmacon) or non-targeting control siRNA (Dharmacon) for 48-60 hours when maximum protein knockdown is achieved (panels a and b. Also see FIG. 3d). Cells were then infected with Towne, AD169, TR, or CMV-GFP strains of HCMV for 1 hour, washed and returned to 37° C. in complete growth media. Supernatants obtained from these cultures were used in subsequent assays measuring production of infectious virus as described below. […] Cultures infected with supernatants from GFP-CMV treated cells were monitored daily under the fluorescence microscope. Over 40% of the control siRNA treated cells expressed CMV-GFP 1 day post infection (c, 1 dpi) and this number increased to 100% by day 6 (c, 6 dpi). Note the appearance of “plaques”-like groups of cells in control siRNA transfected cells (c, 3 and 6 dpi). […]
Measurements of Infectious Virus Production. […] A duplicate set of cultures was analyzed by immunofluorescence at 12 hours post infection (hpi) to assess percent of IE1 positive cells, as a measure of “primary infection”. […] 12 hpi cells were stained for IE1 and IE1 positive cells were counted amongst a total of 100 cells/low magnification microscopic field, 4 fields/condition. […] Where indicated, CMV-GFP infected cells were monitored daily under fluorescence microscope. […]

In series [3] the test system is HCMV. Kind of series: Plaque formation assay. The conditions noted are these: HEL; CMV-GFP MOI of 1; siRNA knockdown at time of infection; counted at 14 dpi. As for the experimental part:
HEL cells transfected with PDGFRα siRNA and control cultures were infected with CMV-GFP (MOI of 1), as described in FIG. 8. Unabsorbed viruses were washed and cells were returned to 37 C. 24 h later, supernatant was harvested and used to infect naïve HEL cultures (6 wells/condition) which were monitored daily for 14 days under the fluorescence microscope for plaque formation. Photomicrographs show representative examples of the CMV-GFP infected cells at 2 and 12 days post infection (2 dpi and 12 dpi, respectively). b. Average plaques counted in 4 separate low magnification fields for each well at 14 dpi. […] As receptor levels return to normal (12 dpi), few infected (green fluorescent) cells were detected in the PDGFRα siRNA treated cultures (a, lower right panel), without formation of plaques. Plaque formation assays were repeated twice. Average counts (n=12)±SD are shown.
Plaque Formation Assays. Plaque formation was assayed. Confluent HEL cells in 6 well cluster plates were incubated with Towne-GFP (MOI of 1, 1 hr) in 0.5 ml growth media. Cells were washed and returned to 37° C. (in complete growth media). 24 h later supernatant was harvested and used to infect naïve HEL cultures which were monitored for plaque formation for 6-14 days. […] At day 14, plaques in ten low magnification fields/condition were counted (each experimental condition was tested in 6 independent wells).

B1: p110α siRNA: mixture of 4 RNAi oligos, "smart pool" from Dharmacon, against PI3K p110α, SEQ ID NO: 5-8 (nucleic acid)
chain 1: GCGAAAUUCUCACACUAUU
chain 2: GUGGUAAAGUUCCCAGAUA
chain 3: GCUUAGAGUUGGAGUUUGA
chain 4: GACCCUAGCCUUAGAUAAA
modifications: pool of four siRNAs, further chemistry not given here
Take B1: the “decrease in infectious virus production” value in series [1] (HEL treated with p110α siRNA, secondary infection, insignificant) was 10%. Besides, the “infectious virus production (secondary infection)” value in series [1] is “lower levels than controls”. Besides, the “reduction of mean number of IE1 positive cells” value in series [2] (HEL, p110α knockdown cultures, p<0.01) was ~50%.

B2: PDGFRα siRNA: "smart Pool" siRNA to hPDGFRα (Dharmacon), SEQ ID NO: 1-4 (nucleic acid)
chain 1: CGAGACUCCUGUAACCUUAUU
chain 2: GAGCUUCACCUAUCAAGUUUU
chain 3: GACAGUGGCCAUUAUACUAUU
chain 4: GAAUAGGGAUAGCUUCCUGUU
modifications: pool of four siRNAs, further chemistry not given here
For B2, the plaque formation entry in series [3] is “completely blocked; also recorded: No plaques were formed”. The CMV-GFP expression result in series [1] (siRNA treated HEL cells monitored daily under fluorescence microscope, 1-6 dpi) is listed as “did not express CMV-GFP”. In series [1], the “infectious virus production (secondary infection)” value was “Near complete inhibition; also recorded: did not produce any infectious virus”. For the same molecule, in series [2] (HEL transfected with siRNA 48-60 h, 12 hpi, vs control siRNA), the “IE1 gene expression (primary infection)” value is given as “Near complete inhibition; also recorded: significantly inhibited”.
